Numbering of substitutions follows the chain as printed.

Consider 21 molecules from patent publication US20060193821, “Aptamers to the human IL-12 cytokine family and their use as autoimmune disease therapeutics” (published 2006).

Series [1] addresses T1, IL-23 (human, p19/p40 heterodimer) (Homo sapiens, UniProt Q9NPF7;P29460 SEQ:20-189,SEQ:23-328). Kind of series: filter; SHMCK, tRNA. Conditions: tags: R&D Systems, carrier free. How it is done: (§1) Monitoring Progress of rRfY Selection. Dot blot binding assays were performed throughout the selections to monitor the protein binding affinity of the pools. Trace ³²P-labeled RNA was combined with a dilution series of h-IL-23 and incubated at room temperature for 30 minutes in 1×SHMCK (20 mM Hepes, 120 mM NaCl, 5 mM KCl, 1 mM MgCl₂, 1 mM CaCl₂, pH 7.4) plus 0.1 mg/mL tRNA for a final volume of 20 μL. The binding reactions were analyzed by nitrocellulose filtration using a Minifold I dot-blot, 96-well vacuum filtration manifold (Schleicher & Schuell, Keene, N.H.). A three-layer filtration medium was used, consisting (from top to bottom) of Protran nitrocellulose (Schleicher & Schuell), Hybond-P nylon (Amersham Biosciences) and GB002 gel blot paper (Schleicher & Schuell). RNA that is bound to protein is captured on the nitrocellulose filter, whereas the non-protein bound RNA is captured on the nylon filter. The gel blot paper was included simply as a supporting medium for the other filters. Following filtration, the filter layers were separated, dried and exposed on a phosphor screen (Amersham Biosciences, Piscataway, N.J.) and quantified using a Storm 860 Phosphorimager® blot imaging system (Amersham Biosciences).
(§2) When a significant positive ratio of binding of RNA in the presence of h-IL-23 versus in the absence of h-IL-23 was seen, the pools were cloned using a TOPO TA cloning kit (Invitrogen, Carlsbad, Calif.) according to the manufacturer's instructions. For the h-IL-23 and X-IL-23 selections, the Round 8 pool templates were cloned, and 32 individual clones from each selections were assayed in a 1-point dot blot screen (+/−75 nM h-IL-23, as well as a separate screen at +/−75 nM h-IL-12). For the PN-IL-23 selection, the Round 10 pool was cloned and sequenced, and 8 unique clones were assayed for protein binding in a 1-point dot blot screen (+/−200 nM h-IL-23 and a separate screen at +/−200 nM h-IL-12). Subsequently, the Round 10 PN-IL-23 pool was re-cloned for further sequences, as well as the R12 PN-IL-23 pool, and the clones were assayed for protein binding in a 1 point do blot screen (+/−100 nM h-IL-23 or +/−200 nM h-IL-12).

Series [2] deals with IL-12 (human, p35/p40 heterodimer) (Homo sapiens, UniProt P29459;P29460 SEQ:57-253,SEQ:23-328). The series can be described thus: filter; tRNA. How it is done:
as §1, §2

The target of series [3] is T1, IL-23 (human, p19/p40 heterodimer). Kind of series: filter; DPBS Ca Mg. Conditions: tags: R&D Systems, carrier free. On the procedure: The selection progress was monitored using the dot blot sandwich filter binding assay as described in Example 1A. The 5′-³²P-labeled pool RNA was refolded at 90° C. for 3 minutes and cooled to room temperature for 10 minutes. Next, pool RNA (trace concentration) was incubated with h-IL-23 DPBS plus 0.1 mg/mL tRNA for 30 minutes at room temperature and then applied to a nitrocellulose and nylon filter sandwich in a dot blot apparatus (Schleicher and Schuell). The percentage of pool RNA bound to the nitrocellulose was calculated and monitored approximately every 3 rounds with a single point screen (+/−250 nM h-IL-23). Pool KD measurements were measured using a titration of h-IL-23 protein (R&D, Minneapolis, Minn.) and the dot blot apparatus as described above.
The rRmY h-IL-23 selection was enriched for h-IL-23 binding vs. the naïve pool after 4 rounds of selection (data not shown). The selection stringency was increased and the selection was continued for 8 more rounds. […] The rGmH selection was enriched over the naïve pool binding at Round 10. […] FIG. 7 is a binding curve of rRmY and rGmH pool selection binding to h-IL-23. The pools were cloned using TOPO TA cloning kit (Invitrogen, Carlsbad, Calif.) and individual sequences were generated and tested for binding. A single point binding screen was initially performed on all crude rRmY clone transcriptions using a 1:200 dilution, +/−200 nM IL-23, plus 0.1 mg/mL competitor tRNA. […] The 10 point screen was performed using zero to 480 nM IL-23 in 3 fold serial dilutions. Binding curves were generated (KaleidaGraph v. 3.51, Synergy Software) and KDs were estimated by fitting the data to the equation: fraction RNA bound=amplitude[h-IL-23]/KD+[h-IL-23]). […] There was one group of 6 duplicate sequences and 4 pairs of 2 duplicate sequences out of the rRmY clones generated. […] Clones were also tested from 48 crude rGmH clone transcriptions at a 1:200 dilution and 0.1 mg/mL tRNA was used as competitor.

T1 sequence (Q9NPF7 20-189, chain 1 of 2): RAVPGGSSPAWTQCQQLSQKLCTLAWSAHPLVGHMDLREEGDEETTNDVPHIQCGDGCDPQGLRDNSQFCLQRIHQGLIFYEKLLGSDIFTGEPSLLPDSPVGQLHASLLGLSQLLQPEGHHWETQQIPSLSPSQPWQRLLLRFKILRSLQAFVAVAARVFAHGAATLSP
T1 sequence (P29460 23-328, chain 2 of 2): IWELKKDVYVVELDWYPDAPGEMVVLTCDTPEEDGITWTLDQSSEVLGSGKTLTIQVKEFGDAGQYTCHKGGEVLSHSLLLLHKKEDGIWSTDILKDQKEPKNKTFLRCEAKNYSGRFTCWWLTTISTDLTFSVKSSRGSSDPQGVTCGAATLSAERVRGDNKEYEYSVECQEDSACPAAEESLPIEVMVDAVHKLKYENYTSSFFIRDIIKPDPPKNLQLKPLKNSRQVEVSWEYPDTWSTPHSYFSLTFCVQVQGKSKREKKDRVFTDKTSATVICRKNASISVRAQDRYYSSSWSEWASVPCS
Sequence of IL-12 (human, p35/p40 heterodimer) (P29459 23-219, chain 1 of 2): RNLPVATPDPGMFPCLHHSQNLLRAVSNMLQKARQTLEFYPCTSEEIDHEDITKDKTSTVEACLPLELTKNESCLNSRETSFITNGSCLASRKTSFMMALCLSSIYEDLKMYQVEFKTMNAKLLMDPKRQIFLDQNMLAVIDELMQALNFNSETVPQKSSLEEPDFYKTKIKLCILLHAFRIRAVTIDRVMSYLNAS
Sequence of IL-12 (human, p35/p40 heterodimer) (P29460 23-328, chain 2 of 2): as the sequence (P29460 23-328, chain 2 of 2) above

B1: AMX86-C9 (ssRNA)
RNA: GGGAAAAGCGAAUCAUACACAAGACUCAUGGAUAUGGCCUAGCAGCCGUGGAAGCGGUCAUUCUGCUCCGCCAGAGACCAACCGAGAA
modifications: 2'-F C,U
The Kd is the equilibrium constant for the complex coming apart. As to B1, the equilibrium dissociation constant (Kd) in series [1] was 0.0979 µM; in series [2] it was 0.673 µM.

B2: rRmY clone SEQ 82 (ssRNA)
RNA: GGGAGAGGAGAGAACGUUCUACGAGAGGCAAGAGAGAGUCGCAUAAAAAAGACGCUGUCGAUCGAUCGAUCGAUG
modifications: 2'-OMe C,U
For the molecule B2, the Kd in series [3] came out at 0.199 µM.

B3: rRmY clone SEQ 79 (ssRNA)
RNA: GGGAGAGGAGAGAACGUUCUACAAAAGGCAGGCUCAGGGGAUCACUGGAAGUCGCUGUCGAUCGAUCGAUCGAUG
modifications: 2'-OMe C,U
Consider B3, for which the Kd in series [3] stood at 0.807 µM.

B4: AMX86-B10 (ssRNA)
RNA: GGGAAAAGCGAAUCAUACACAAGAGAACGAGUAUAUUUGCGCUGGCGGAGAAGUCUCUCGAAGGGAGCUCCGCCAGAGACCAACCGAGAA
modifications: 2'-F C,U
Turning to B4, the Kd stood at 0.0778 µM in series [1] and 1.04 µM in series [2].

B5: rRmY clone SEQ 74 (ssRNA)
RNA: GGGAGAGGAGAGAACGUUCUACGGUAAAGCAGGCUGACUGAAAGGUUGAAGUCGCUGUCGAUCGAUCGAUCGAUG
modifications: 2'-OMe C,U
B5: the Kd in series [3] stood at 0.257 µM.

B6: rRmY clone SEQ 84 (ssRNA)
RNA: GGGAGAGGAGAGAACGUUCUACGGAAAAAGAUAUGAAAGAAAGGAUUAAGAGACGCUGUCGAUCGAUCGAUCGAUG
modifications: 2'-OMe C,U
For B6, the Kd in series [3] is 0.603 µM.

B7: rRmY clone SEQ 72 (ssRNA)
RNA: GGGAGAGGAGAGAACGUUCUACAAAUGAGAGCAGGCCGAAAAGGAGUCGCUCGCUGUCGAUCGAUCGAUCGAUG
modifications: 2'-OMe C,U
Turning to B7, the Kd in series [3] was found to be 0.211 µM.

B8: rRmY clone SEQ 81 (ssRNA)
RNA: B7 RNA with A23G
modifications: 2'-OMe C,U
Take B8: in series [3], the dissociation constant (Kd) was 0.303 µM.

B9: AMX86-B11 (ssRNA)
RNA: GGGAAAAGCGAAUCAUACACAAGAGUAUCAUUCGGCUGGUGGGAGAAAUCUCUGUAGAUAUAGAGCUCCGCCAGAGACCAACCGAGAA
modifications: 2'-F C,U
In the case of B9, the dissociation constant (Kd) is 0.18 µM in series [1] and 5.95 µM in series [2].

B10: rRmY clone SEQ 75 (ssRNA)
RNA: GGGAGAGGAGAGAACGUUCUACAGGUUAAGAGCAGGCUCAGGAAUGGAAGUCGCUGUCGAUCGAUCGAUCGAUG
modifications: 2'-OMe C,U
With B10, the Kd in series [3] is 0.479 µM.

B11: AMX91-H8 (ssRNA)
RNA: GGGAAAAGCGAAUCAUACACAAGAACGCAUAGUCGGAUUUACCGAUCAUUCUGUGCCUUCGUGACGCUCCGCCAGAGACCAACCGAGAA
modifications: 2'-F C,U
On to B11, for which the values for the dissociation constant (Kd) in series [1] and in series [2] were 0.0166 µM and 0.243 µM, respectively.

B12: AMX86-E10 (ssRNA)
RNA: GGGAAAAGCGAAUCAUACACAAGAUUGUCUCGGAUUGGUCACUCCCAUUUUUGUUCGCUUAACGGCUCCGCCAGAGACCAACCGAGAA
modifications: 2'-F C,U
With B12, the equilibrium dissociation constant (Kd) in series [1] amounted to 0.218 µM; in series [2], 0.905 µM.

B13: AMX86-A11 (ssRNA)
RNA: GGGAAAAGCGAAUCAUACACAAGAACGGCUAGGCAUCAAUGGCCAGCAAAAAUAGUCGUGUAAUGCUCCGCCAGAGACCAACCGAGAA
modifications: 2'-F C,U
B13: the results for the Kd in series [1] and in series [2] were 0.157 µM and 0.182 µM, respectively.

B14: AMX86-F11 (ssRNA)
RNA: GGGAAAAGCGAAUCAUACACAAGACCAUCGGACGAGGCGGGUCACCUUUUACGCUUUCGAGCUGGCUCCGCCAGAGACCAACCGAGAA
modifications: 2'-F C,U
With B14, the Kd came out at 0.256 µM in series [1] and 0.541 µM in series [2].

B15: rRmY clone SEQ 77 (ssRNA)
RNA: GGGAGAGGAGAGAACGUUCUACAACAAAGCAGGCUCAUAGUAAUAUGGAAGUCGCUGUCGAUCGAUCGAUCGAUG
modifications: 2'-OMe C,U
B15: in series [3], the equilibrium dissociation constant (Kd) is 0.259 µM.

B16: AMX86-F12 (ssRNA)
RNA: GGGAAAAGCGAAUCAUACACAAGAGUGUUGAAUGAGCGCUGGUGGACAGAUCUUUGGUUACAGAGCUCCGCCAGAGACCAACCGAGAA
modifications: 2'-F C,U
Take B16: the Kd in series [1] amounted to 0.424 µM; in series [2], 2.91 µM.

B17: AMX86-B7 (ssRNA)
RNA: GGGAAAAGCGAAUCAUACACAAGAAUGAAUUCCGUCCACGGGCGCCCGAUGAUGUCAGUUUUCGGCUCCGCCAGAGACCAACCGAGAA
modifications: 2'-F C,U
As to B17, the dissociation constant (Kd) in series [1] is 0.111 µM; in series [2], 0.934 µM.

B18: rRmY clone SEQ 86 (ssRNA)
RNA: GGGAGAGGAGAGAACGUUCUACUAAUGCAGGCUCAGUUACUACUGGAAGUCGCUGUCGAUCGAUCGAUCGAUG
modifications: 2'-OMe C,U
Turning to B18, the Kd in series [3] was found to be 0.219 µM.

B19: AMX86-A10 (ssRNA)
RNA: GGGAAAAGCGAAUCAUACACAAGAGUAAUGUGGGUCCCGAUGAUUCGCUGUGCGGCGUUUGUAGCUCCGCCAGAGACCAACCGAGAA
modifications: 2'-F C,U
Turning to B19, the Kd in series [1] is 0.461 µM; in series [2], 0.289 µM.

B20: AMX86-C5 (ssRNA)
RNA: GGGAAAAGCGAAUCAUACACAAGAGUUUUAUGUGGGUCCCGAUGAUUAACUUUAUUGGCGCAUUGCUCCGCCAGAGACCAACCGAGAA
modifications: 2'-F C,U
In the case of B20, the Kd amounted to 0.0803 µM in series [1] and 0.4 µM in series [2].

B21: AMX86-A7 (ssRNA)
RNA: GGGAAAAGCGAAUCAUACACAAGAUCUCUUUGGCCGACGCAACAAUGCUCUUUUCCGACCUUGCGCUCCGCCAGAGACCAACCGAGAA
modifications: 2'-F C,U
Consider B21, for which the Kd was 0.0577 µM in series [1] and 0.668 µM in series [2].
